What was measured:
[1] = test system: co-cultures of dorsal root ganglion (DRG) neurons and oligodendrocytes; test: Myelination in co-cultures of DRG neurons and oligodendrocytes; assay type: cell-based, rat
Method: The role of Sp35 in myelination was examined in vitro by treating co-cultures of dorsal root ganglion (DRG) neurons and oligodendrocytes with Sp35-Fc and testing for myelination by immunohistochemistry and electron microscopy. For these studies, it was necessary to first generate primary cultures of DRG neurons and of oligodendrocytes.
Female Long Evans rat E14-E17 embryonic dorsal root ganglia were cultured as described by Plant et al., J. Neurosci. 22:6083-91 (2002). Dissected DRGs were plated on poly-L-lysine-coated cover slips (100 μg/ml) for 2 weeks in the presence of fluorodeoxyuridine for days 2-6 and days 8-11 in NLA medium containing 1×B27, 100 ng/ml NGF (Invitrogen).
A2B5^+ oligodendrocytes were prepared as described in Example 1, and were harvested by trypsinization.
For coculture studies, A2B5^+ oligodendrocytes were added to DRG neuron drop cultures in the presence or absence of 10 μg/ml Sp35-Fc. The culture medium (Neurobasal medium supplemented with B27 and 100 ng/ml NGF) was changed, and fresh Sp35-Fc was added to the cells every 3 d. To identify changes in myelination, 2-week-old cultures were stained by immunohistochemical staining (“IHC”) for neurofilaments with anti-βIII-tubulin antibody to identify axons, or anti-MBP antibody to identify oligodendrocytes., and 4-week-old cultures were subjected to SDS-PAGE followed by western blot analyses to quantify the MBP. In selected examples, cells were fixed for electron microscopy studies by adding 2.5% gluteraldehyde directly onto the cover slips. Myelinated axons in the 2-week-old cultures were quantified by counting the number of myelinated internode bundles that were derived from single MBP^+ oligodendrocytes. Samples were analyzed in duplicate. Error bars denote individual determinations. P values in all studies were determined using a one-way analysis of variance. […]
We performed experiments to address the relative contributions to the myelination process of Sp35 in DRG neurons as compared to oligodendrocytes. We infected DRG neurons, oligodendrocytes and co-cultures (prepared as described in Example 5) with the FL-Sp35 and DN-Sp35 lentiviral vectors described in Example 1 and performed immunohistochemical straining for myelinated MBP^+ cells after two weeks. A 2-fold increase in MBP levels in co-cultures where both cells express DN-Sp35 and a 2-fold decrease in MBP levels in co-cultures where both cells express FL-Sp35 was observed (FIG. 10G).

cuprizone-treated mice = test: Cuprizone demyelination model, stereotactic injection into corpus callosum; assay type: in vivo; conditions: injected at 2, 2.5 and 3 weeks of cuprizone feeding
Text: Adult wild-type C57B1/6 male mice were fed cuprizone (0.2% milled with ground mouse chow by weight) for 6 weeks to induce demyelination within the corpus callosum. Sp35-Fc was stereotactically injected into the demyelinating corpus callosum at 2, 2.5, and 3 weeks of cuprizone feeding. Control mice were stereotactically injected at the same intervals with sterilized media containing no Sp35-Fc. After 6 weeks of cuprizone feeding, the mice were returned to a normal diet for 2, 4 and 6 weeks (ground mouse chow only) to allow remyelination.
The cuprizone-treated mice were anesthetized with ketamine (80 mg/kg body weight) and xylazine (10 mg/kg body weight) and positioned in an immobilization apparatus designed for stereotactic surgery (David Kopf Instruments). The scalp was opened and the sterile compounds injected (1 μM in […] of HBSS) unilaterally into the acutely demyelinated corpus callosum of the wild-type recipient mice with a […] Hamilton syringe using stereotactic coordinates of 0.7 mm posterior and 0.3 mm lateral to bregrna at a depth of 1.7 mm (Messier et al., Pharmacol. Biochem. Behav. 63(2): 313-18 (1999)). Additionally, control recipient mice were stereotactically injected with HBSS containing no compounds. The opening in the skull was filled with Gelfoam, and the area was swabbed with penicillin and streptomycin (Gibco) and the wound was sutured. […]

B1: Sp35-Fc: extra-cellular portion of human Sp35 (residues 1-532) fused to the hinge and Fc region of human IgG1 (protein)
chain: TGCPPRCECSAQDRAVLCHRKRFVAVPEGIPTETRLLDLGKNRIKTLNQDEFASFPHLEELELNENIVSAVEPGAFNNLFNLRTLGLRSNRLKLIPLGVFTGLSNLTKLDISENKIVILLDYMFQDLYNLKSLEVGDNDLVYISHRAFSGLNSLEQLTLEKCNLTSIPTEALSHLHGLIVLRLRHLNINAIRDYSFKRLYRLKVLEISHWPYLDTMTPNCLYGLNLTSLSITHCNLTAVPYLAVRHLVYLRFLNLSYNPISTIEGSMLHELLRLQEIQLVGGQLAVVEPYAFRGLNYLRVLNVSGNQLTTLEESVFHSVGNLETLILDSNPLACDCRLLWVFRRRWRLNFNRQQPTCATPEFVQGKEFKDFPDVLLPNYFTCRRARIRDRKAQQVFVDEGHTVQFVCRADGDPPPAILWLSPRKHLVSAKSNGRLTVFPDGTLEVRYAQVQDNGTYLCIAANAGGNDSMPAHLHVRSYSPDWPHQPNKTFAFISNQPGE
modifications: left off: a dimerising Fc or GST
notes: extra-cellular portion of human Sp35 (residues 1-532) fused to the hinge and Fc region of human IgG1
[1]; 4-week co-cultures, FIG. 10C
  internodes and nodes of Ranvier by electron microscopy: Multiple wellformed internodes were observed
[1]; 4-week-old treated co-cultures, anti-MBP antibody
  expression of MBP (western blot): increased
[1]; exogenously added
  effect on myelination when both cell types overexpress DN-Sp35: slight effects
  effect on myelination when either cell type overexpresses DN-Sp35 alone: further enhanced myelination
[1]; exogenously added, FL-Sp35 in either or both cell types
  effect on inhibition of myelination by overexpression of FL-Sp35: reversed the inhibition of myelination
[1]; treatment for 2 weeks, dose-dependent, FIG. 10A
  axonal myelination (MBP+ myelinated axons): robust axonal myelination
cuprizone-treated mice
  axon myelination by IHC using anti-MBP protein antibody or luxol fast blue: increased
cuprizone-treated mice; FIG. 12
  mature oligodendrocyte survival (CC1 antibody staining): increased mature oligodendrocyte survival

— patent US20090175872A1, “Treatment of Conditions Involving Demyelination” (BIOGEN Idec MA Inc., priority 2005, published 2009)
